{"source": "patent US8895062B2", "about": "“Surface-layer protein coated microspheres and uses thereof” (University of Maryland, Baltimore, priority 2006, dated 2014)", "key": {"[1]": {"tested_on": "Caco-2 intestinal epithelial cells", "assay": "IL-8 secretion by Caco-2 cells (Luminex-100)", "type": "cell-based, human", "conditions": "18 hours", "description": "TNFα (100 ng/ml; dark grey bar) served as a positive control. Following incubation for 18 hours, culture supernatants were analyzed for IL-8 using the Luminex-100 system in duplicate. Data represent mean and standard deviation of three individual experiments.\nNo peptides (c) and TNFα alone (dark grey bar) served as controls. Following incubation for 18 hours, culture supernatants were analyzed for IL-8 using the Luminex-100 system in duplicate. Data represent mean and standard deviation of three individual experiments.\nSubconfluent monolayers of Caco-2 cells were maintained in RPMI 1640 medium (Gibco), supplemented with 10% FBS (Valley Biomedical, Winchester, Va.), 2 mM L-glutamine (Quality Biological, Gaithersburg, Md.), 20 mM HEPES, 1× nonessential amino acids, 1 mM sodium pyruvate and 5% Penicillin/Streptomycin (Sigma) in a humidified incubator at 37° C. with 5% CO2. Caco-2 cells were used between passages 35-42. Caco-2 cells were plated at a density of 4×10^4 cells/cm^2 in a 96-well plate 48 hours before use. The cells were gently washed twice with serum-free medium and incubated for a further 18 hours in serum-free medium containing the peptides at a final concentration of 50 or 100 ug/ml. Human recombinant tumor necrosis factor alpha (Sigma; 100 ng/ml) was included during incubation with the peptides (100 ug/ml) as indicated. The culture supernatant was collected for measurement of IL-8 using the Luminex-100 system (Bio-rad Laboratories)."}, "[2]": {"target": "T1, Collagen (human placenta Type IV) (Homo sapiens, UniProt P02462+P08572)", "T1 construct": "purchased Sigma; host or cells: human placenta", "T1 sequence (P02462 173-1669)": "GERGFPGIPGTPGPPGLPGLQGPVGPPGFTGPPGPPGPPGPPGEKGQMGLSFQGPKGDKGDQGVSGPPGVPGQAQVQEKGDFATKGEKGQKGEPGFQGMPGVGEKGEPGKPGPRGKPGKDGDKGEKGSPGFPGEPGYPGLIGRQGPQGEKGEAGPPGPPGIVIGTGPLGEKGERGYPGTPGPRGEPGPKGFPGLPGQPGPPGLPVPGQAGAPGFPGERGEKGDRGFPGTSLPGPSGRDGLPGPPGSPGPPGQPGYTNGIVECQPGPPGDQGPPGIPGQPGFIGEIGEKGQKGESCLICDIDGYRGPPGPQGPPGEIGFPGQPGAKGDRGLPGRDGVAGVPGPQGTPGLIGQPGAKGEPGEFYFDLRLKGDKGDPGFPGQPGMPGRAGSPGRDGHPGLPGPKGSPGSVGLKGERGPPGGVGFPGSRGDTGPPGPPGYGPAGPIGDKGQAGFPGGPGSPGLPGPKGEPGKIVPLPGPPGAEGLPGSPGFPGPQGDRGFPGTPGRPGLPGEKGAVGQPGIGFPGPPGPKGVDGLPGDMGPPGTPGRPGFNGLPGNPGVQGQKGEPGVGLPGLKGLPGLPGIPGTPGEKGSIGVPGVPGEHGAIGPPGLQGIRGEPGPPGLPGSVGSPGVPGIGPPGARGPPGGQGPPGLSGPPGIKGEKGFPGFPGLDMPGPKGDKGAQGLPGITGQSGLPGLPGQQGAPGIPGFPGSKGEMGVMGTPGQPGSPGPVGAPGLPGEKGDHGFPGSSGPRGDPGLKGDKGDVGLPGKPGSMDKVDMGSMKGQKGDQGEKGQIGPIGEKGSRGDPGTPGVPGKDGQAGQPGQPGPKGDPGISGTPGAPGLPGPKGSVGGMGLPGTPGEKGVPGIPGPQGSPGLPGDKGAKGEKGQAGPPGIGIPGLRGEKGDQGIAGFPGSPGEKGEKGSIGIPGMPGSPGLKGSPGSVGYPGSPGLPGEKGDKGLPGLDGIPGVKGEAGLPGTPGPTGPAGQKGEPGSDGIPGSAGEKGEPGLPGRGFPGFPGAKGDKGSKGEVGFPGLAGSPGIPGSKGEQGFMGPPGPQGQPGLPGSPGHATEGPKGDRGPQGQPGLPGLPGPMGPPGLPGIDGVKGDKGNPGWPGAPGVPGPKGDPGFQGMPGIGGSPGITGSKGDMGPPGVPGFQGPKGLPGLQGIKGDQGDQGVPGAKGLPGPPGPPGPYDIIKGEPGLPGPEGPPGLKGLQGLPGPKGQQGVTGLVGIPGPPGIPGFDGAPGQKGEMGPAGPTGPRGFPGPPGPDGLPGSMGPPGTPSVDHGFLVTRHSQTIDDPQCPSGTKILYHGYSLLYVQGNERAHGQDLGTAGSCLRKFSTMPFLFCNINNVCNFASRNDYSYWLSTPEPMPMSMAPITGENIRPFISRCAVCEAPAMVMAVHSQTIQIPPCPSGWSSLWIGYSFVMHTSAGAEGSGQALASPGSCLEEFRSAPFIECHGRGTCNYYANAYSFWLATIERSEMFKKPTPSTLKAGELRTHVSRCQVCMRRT", "T1 sequence (P08572 184-1712)": "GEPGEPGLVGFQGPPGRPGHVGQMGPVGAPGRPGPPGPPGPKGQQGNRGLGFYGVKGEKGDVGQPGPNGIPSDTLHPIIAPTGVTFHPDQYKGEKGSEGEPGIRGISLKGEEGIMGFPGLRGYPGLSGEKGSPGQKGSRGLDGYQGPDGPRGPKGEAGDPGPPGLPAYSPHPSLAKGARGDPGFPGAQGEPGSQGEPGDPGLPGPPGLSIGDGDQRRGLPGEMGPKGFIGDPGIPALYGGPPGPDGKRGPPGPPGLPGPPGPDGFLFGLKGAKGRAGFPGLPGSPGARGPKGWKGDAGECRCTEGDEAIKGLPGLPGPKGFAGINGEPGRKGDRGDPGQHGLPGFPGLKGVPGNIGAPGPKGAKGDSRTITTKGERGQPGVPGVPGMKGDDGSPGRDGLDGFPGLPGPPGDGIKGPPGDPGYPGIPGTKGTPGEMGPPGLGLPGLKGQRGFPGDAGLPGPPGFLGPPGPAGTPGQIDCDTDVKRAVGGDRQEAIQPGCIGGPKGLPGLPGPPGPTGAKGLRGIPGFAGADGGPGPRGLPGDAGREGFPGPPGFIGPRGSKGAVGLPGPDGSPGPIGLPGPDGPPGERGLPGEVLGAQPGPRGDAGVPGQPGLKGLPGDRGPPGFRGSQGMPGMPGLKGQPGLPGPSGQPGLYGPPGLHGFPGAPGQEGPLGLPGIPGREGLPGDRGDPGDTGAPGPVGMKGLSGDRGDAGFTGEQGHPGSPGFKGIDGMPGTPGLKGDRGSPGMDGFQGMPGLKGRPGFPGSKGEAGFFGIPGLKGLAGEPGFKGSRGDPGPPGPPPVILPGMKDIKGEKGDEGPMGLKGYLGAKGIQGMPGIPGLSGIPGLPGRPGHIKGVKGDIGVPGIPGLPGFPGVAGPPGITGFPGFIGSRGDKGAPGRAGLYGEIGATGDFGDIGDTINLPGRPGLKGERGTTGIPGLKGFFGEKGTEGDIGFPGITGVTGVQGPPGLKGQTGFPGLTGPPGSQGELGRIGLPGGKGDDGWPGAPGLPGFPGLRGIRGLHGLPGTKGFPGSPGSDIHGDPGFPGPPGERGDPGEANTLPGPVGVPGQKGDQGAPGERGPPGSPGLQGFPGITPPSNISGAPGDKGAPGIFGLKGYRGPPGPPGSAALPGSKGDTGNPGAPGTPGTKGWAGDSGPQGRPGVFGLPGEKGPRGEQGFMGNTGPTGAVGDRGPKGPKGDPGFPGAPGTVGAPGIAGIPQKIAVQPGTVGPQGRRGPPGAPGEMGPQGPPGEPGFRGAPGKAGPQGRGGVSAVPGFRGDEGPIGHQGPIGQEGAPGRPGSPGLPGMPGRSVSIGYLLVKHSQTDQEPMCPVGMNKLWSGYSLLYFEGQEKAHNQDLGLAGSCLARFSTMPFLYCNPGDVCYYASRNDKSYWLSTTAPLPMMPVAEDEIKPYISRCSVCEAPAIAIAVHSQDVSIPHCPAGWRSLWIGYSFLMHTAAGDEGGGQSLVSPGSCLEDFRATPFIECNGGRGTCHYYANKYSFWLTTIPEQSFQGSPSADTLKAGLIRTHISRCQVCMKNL", "assay": "Surface plasmon resonance (BIAcore 3000), immobilized SlpA binding to collagen", "description": "(§1) The interaction between SlpA and extracellular matrix components was evaluated by surface plasmon resonance on a BIAcore 3000 instrument. Purified SlpA protein in 5M LiCl was dialyzed against double-distilled water overnight. Monomeric and/or oligomeric protein was separated from self-assembled material by centrifugation at 20,000×g for 20 min. SlpA protein (50 ug/ml in 10 mM Sodium Phosphate pH 7.4) was covalently coupled to CM5 carboxylated dextran chips using N-hydroxysuccinimide (NHS) chemistry. Uncoupled NHS-ester groups were blocked with 1M Ethanolamine, resulting in the coupling of about 1700 resonance units (RU's) to the chip. Kinetic analysis was carried out at 25° C. in 10 mM HEPES, 150 mM NaCl, 3 mM EDTA, 0.005% surfactant P20, pH 7.4. Fibronectin, laminin, fibrinogen and collagen were treated according to manufacturer's instructions and injected at indicated concentrations at a flow rate of 20 ul/min over each flow cell. Binding was determined experimentally by comparing the number of RU's observed as a function of time to an activated and blocked flow cell containing no linked protein. Non-specific binding to the control flow cell appeared insignificant. Data were evaluated using the BIAevaluation 4.1 software. The association and dissociation data were modeled with the BIAevaluation 4.1 software (Pharmacia Biosensor AB). Following subtraction of data from the control flow cell, the binding data produced for the various protein concentrations were fitted simultaneously, assuming the 1:1 Langmuir model. The equilibrium constant for the fibronectin+benzamidine experiment was calculated using steady-state kinetics.\n(§2) To examine the binding properties of SlpA to the extracellular matrix proteins fibronectin, laminin, fibrinogen and collagen in detail, surface plasmon resonance was used. […] The association and dissociation rate constants were estimated from the binding data at different concentrations using the BIAevaluation software and from these values the binding constant was calculated (Table 2). […] In addition, the interaction between SlpA and the ECN components fibrinogen and collagen was studied."}, "[3]": {"target": "T2, Fibrinogen (human plasma) (Homo sapiens, UniProt P02671+P02675+P02679)", "T2 construct": "Fibrinogen (human plasma) was obtained from Calbiochem; purchased Calbiochem; host or cells: human plasma", "T2 sequence (P02671 20-644 isoform P02671-2 limits assumed)": "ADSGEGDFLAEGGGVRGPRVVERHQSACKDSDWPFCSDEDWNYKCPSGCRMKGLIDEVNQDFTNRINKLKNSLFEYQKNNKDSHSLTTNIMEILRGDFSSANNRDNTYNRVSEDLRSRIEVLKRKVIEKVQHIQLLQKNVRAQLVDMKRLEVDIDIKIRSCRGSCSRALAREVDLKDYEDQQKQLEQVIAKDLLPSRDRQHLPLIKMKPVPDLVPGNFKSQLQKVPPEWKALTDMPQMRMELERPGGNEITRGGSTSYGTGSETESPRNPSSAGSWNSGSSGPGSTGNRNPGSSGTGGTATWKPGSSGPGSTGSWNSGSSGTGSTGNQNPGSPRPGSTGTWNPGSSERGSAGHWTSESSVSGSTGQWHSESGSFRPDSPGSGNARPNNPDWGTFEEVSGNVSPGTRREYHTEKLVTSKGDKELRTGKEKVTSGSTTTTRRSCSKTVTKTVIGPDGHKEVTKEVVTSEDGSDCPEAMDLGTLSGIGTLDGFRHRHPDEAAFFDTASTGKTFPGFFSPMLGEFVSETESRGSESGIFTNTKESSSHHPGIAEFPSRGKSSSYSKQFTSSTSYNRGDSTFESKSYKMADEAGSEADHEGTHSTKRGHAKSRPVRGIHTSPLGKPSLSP", "T2 sequence (P02675 31-491)": "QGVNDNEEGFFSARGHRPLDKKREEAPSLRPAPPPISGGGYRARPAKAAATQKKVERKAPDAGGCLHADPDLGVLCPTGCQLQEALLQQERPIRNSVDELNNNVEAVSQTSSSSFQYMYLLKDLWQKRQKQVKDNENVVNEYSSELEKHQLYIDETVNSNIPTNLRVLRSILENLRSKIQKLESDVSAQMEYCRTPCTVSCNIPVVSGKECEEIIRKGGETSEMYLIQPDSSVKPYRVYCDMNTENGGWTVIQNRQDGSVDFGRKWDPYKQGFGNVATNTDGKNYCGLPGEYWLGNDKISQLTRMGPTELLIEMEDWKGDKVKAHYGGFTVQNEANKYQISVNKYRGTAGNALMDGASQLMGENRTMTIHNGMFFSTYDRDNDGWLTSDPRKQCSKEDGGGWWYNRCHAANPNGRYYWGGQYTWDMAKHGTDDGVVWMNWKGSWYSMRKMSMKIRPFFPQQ", "T2 sequence (P02679 27-437 isoform P02679-2 limits assumed)": "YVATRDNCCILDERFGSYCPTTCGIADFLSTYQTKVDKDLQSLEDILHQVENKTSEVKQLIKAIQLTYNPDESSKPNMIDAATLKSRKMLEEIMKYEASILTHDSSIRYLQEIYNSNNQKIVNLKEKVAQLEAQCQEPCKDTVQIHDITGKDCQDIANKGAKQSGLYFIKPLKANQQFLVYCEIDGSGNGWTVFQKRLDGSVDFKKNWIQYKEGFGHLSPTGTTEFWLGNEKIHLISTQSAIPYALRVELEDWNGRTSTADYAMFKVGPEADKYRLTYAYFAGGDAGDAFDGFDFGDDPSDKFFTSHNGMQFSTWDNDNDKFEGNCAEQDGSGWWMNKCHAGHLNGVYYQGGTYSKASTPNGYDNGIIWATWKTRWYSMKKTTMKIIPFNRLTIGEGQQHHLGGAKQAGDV", "assay": "Surface plasmon resonance (BIAcore 3000), immobilized SlpA binding to fibrinogen", "conditions": "from binding constants", "description": "The interaction between SlpA and extracellular matrix components was evaluated by surface plasmon resonance on a BIAcore 3000 instrument. Purified SlpA protein in 5M LiCl was dialyzed against double-distilled water overnight. Monomeric and/or oligomeric protein was separated from self-assembled material by centrifugation at 20,000×g for 20 min. SlpA protein (50 ug/ml in 10 mM Sodium Phosphate pH 7.4) was covalently coupled to CM5 carboxylated dextran chips using N-hydroxysuccinimide (NHS) chemistry. Uncoupled NHS-ester groups were blocked with 1M Ethanolamine, resulting in the coupling of about 1700 resonance units (RU's) to the chip. […] Binding was determined experimentally by comparing the number of RU's observed as a function of time to an activated and blocked flow cell containing no linked protein. […] Data were evaluated using the BIAevaluation 4.1 software. […] The equilibrium constant for the fibronectin+benzamidine experiment was calculated using steady-state kinetics.\nTo examine the binding properties of SlpA to the extracellular matrix proteins fibronectin, laminin, fibrinogen and collagen in detail, surface plasmon resonance was used. […] The association and dissociation rate constants were estimated from the binding data at different concentrations using the BIAevaluation software and from these values the binding constant was calculated (Table 2). […]"}, "[4]": {"target": "T3, Laminin (basement membrane of Engelbreth-Holm-Swarm mouse sarcoma) (Mus musculus, UniProt P02468+P02469+P19137)", "T3 construct": "Laminin (basement membrane of Engelbreth-Holm-Swarm mouse sarcoma); purchased Sigma; host or cells: Engelbreth-Holm-Swarm mouse sarcoma basement membrane", "assay": "Surface plasmon resonance (BIAcore 3000), immobilized SlpA binding to laminin", "description": "as §1, §2"}, "[5]": {"target": "Fibronectin (human plasma)", "assay": "Surface plasmon resonance (BIAcore 3000), immobilized SlpA binding to fibronectin", "description": "as §1, §2"}, "S. aureus ATCC 29213": {"tested_on": "S. aureus ATCC 29213", "assay": "Antibacterial activity, 96-well turbidimetric assay, S. aureus", "type": "cell-based, Staphylococcus aureus", "description": "(§3) Strains were exposed to the peptides at concentrations varying twofold from 0.12 to 125 μg/ml. (B) Strains were exposed to fixed peptide concentrations (100 ug/ml for E. coli; 50 ug/ml for S. aureus) in the absence or presence of the indicated concentrations of sodium chloride. Each curve is the mean of three separate experiments. Points scored as zero survival could not be plotted.\n(§4) The antibacterial activity of HD-5 and HD-5Abu against E. coli ATCC 25922 and S. aureus ATCC 29213 was carried out in a 96-well turbidimetric assay as described previously."}, "E. coli ATCC 25922": {"tested_on": "E. coli ATCC 25922", "assay": "Antibacterial activity, 96-well turbidimetric assay, E. coli", "type": "cell-based, Escherichia coli", "description": "as §3, §4"}, "[6]": {"conditions": "fibronectin to immobilized SlpA"}, "[7]": {"conditions": "peptide 0.12 to 125 μg/ml, 2 hour incubation"}}, "note": "Several values for one entry are separate records, joined by “and”; a condition that tells them apart may be missing. Equal values may be shown once."}
{"molecule": "TNFα [reference compound]", "values": [{"measurement": "IL-8 secretion increase relative to the control", "setting": "[1]; TNFα 100 ng/ml alone", "value": "~10", "unit": "fold"}]}
{"molecule": "SlpA: Surface layer (S-layer) protein purified from Lactobacillus brevis ATCC 8287 by 5M LiCl extraction and gel filtration (protein) KSYATAGAYSTLKTDAATRNVEATGTNALYTKPGTVKGAKVVASKATMAKLASSKKSADYFRAYGVKTTNRGSVYYRVVTMDGKYRGYVYGGKSDTAFAGGIKSAETTTKADMPARTTGFYLTDTSKNTLWTAPKYTQYKASKVSLYGVAKDTKFTVDQAATKTREGSLYYHVTATNGSGISGWIYAGKGFSTTATGTQVLGGLSTDKSVTATNDNSVKIVYRTTDGTQVGSNTWVTSTDGTKAGSKVSDKAADQTALEAYINANKPSGYTVTNPNAADATYGNTVYATVSQAATSKVALKVSGTPVTTALTTADANDKVAANDTTANGSSVAGSTVYAAGTKLAQLTTDLTGEKGQVVTLTAIDTDLEDATFTGTTTYYSDLGKAYHYTYTYNKDSAASSNASTQFGSNVTGTLTATLVMGKSTATANGTTWFN", "values": [{"measurement": "Kd", "setting": "[2]; collagen to immobilized SlpA", "value": 31.8, "unit": "µM"}, {"measurement": "ka × 10^3", "setting": "[2]; collagen to immobilized SlpA", "value": "3.47 × 10^3"}, {"measurement": "kd × 10^−3 (s^−1)", "setting": "[2]; collagen to immobilized SlpA", "value": "1.1 × 10^−3 s^−1"}, {"measurement": "binding affinity for collagen compared with affinity for fibronectin and laminin", "setting": "[2]; from binding constants", "value": "three orders of magnitude less"}, {"measurement": "binding affinity for fibrinogen compared with affinity for fibronectin and laminin", "setting": "[3]", "value": "three orders of magnitude less"}, {"measurement": "affinity of SlpA to bind laminin compared with fibronectin", "setting": "[4]; from calculated Kd values", "value": "three-fold higher affinity"}, {"measurement": "ka × 10^3", "setting": "[4]; laminin + benzamidine (1 mM)", "value": "3.03 × 10^3"}, {"measurement": "kd × 10^−3 (s^−1)", "setting": "[4]; laminin + benzamidine (1 mM)", "value": "2 × 10^−3 s^−1"}, {"measurement": "ka × 10^3", "setting": "[4]; laminin to immobilized SlpA", "value": "4.89 × 10^3"}, {"measurement": "kd × 10^−3 (s^−1)", "setting": "[4]; laminin to immobilized SlpA", "value": "1.3 × 10^−3 s^−1"}, {"measurement": "Kd", "setting": "[5]; fibronectin + benzamidine (SlpA preincubated with 1 mM benzamidine), steady-state kinetics", "value": 30.1, "unit": "µM"}, {"measurement": "ka × 10^3", "setting": "[5]; [6]", "value": "7.04 × 10^3"}, {"measurement": "kd × 10^−3 (s^−1)", "setting": "[5]; [6]", "value": "6.32 × 10^−3 s^−1"}, {"measurement": "Kd", "setting": "[5]; fibronectin to immobilized SlpA, 25° C., 1:1 Langmuir model", "value": "0.0899 µM and 0.0898 µM"}]}
{"molecule": "HD-5α: human α-defensin 5, chemically synthesized and folded, three intra-molecular disulfide bonds (peptide, UniProt Q01523 20-94, looked up, Defensin-5, human α-defensin 5, chemically synthesized and folded, three intra-molecular disulfide bonds) Defensin alpha 5: ESLQERADEATTQKQSGEDNQDLAISFAGNGLSALRTSGSQARATCYCRTGRCATRESLSGVCEISGRLYRLCCR", "values": [{"measurement": "antibacterial activity against S. aureus at highest salt concentration", "setting": "S. aureus ATCC 29213; peptide 50 ug/ml, 100 mM sodium chloride", "value": "still significantly toxic"}, {"measurement": "antimicrobial activity (killing) against S. aureus", "setting": "S. aureus ATCC 29213; [7]", "value": "efficiently killed"}, {"measurement": "IL-8 levels increase compared to control cells", "setting": "[1]; peptide 100 ug/ml, serum-free medium", "value": "~10", "unit": "fold"}, {"measurement": "induction of IL-8 secretion", "setting": "[1]; peptide 50 and 100 ug/ml", "value": "dose-dependent"}, {"measurement": "antibacterial activity against E. coli at highest salt concentration", "setting": "E. coli ATCC 25922; peptide 100 ug/ml, 100 mM sodium chloride", "value": "almost completely inhibited"}, {"measurement": "antimicrobial activity (killing) against E. coli", "setting": "E. coli ATCC 25922; [7]", "value": "efficiently killed"}]}
